Target: purified, recombinant human FMRP protein

B1: inositol-requiring enzyme-1 (IRE1), wild type, expressed from plasmid in HEK293T cells (protein)
chain: IFGSTSTVTLPETLLFVSTLDGSLHAVSKRTGSIKWTLKEDPVLQVPTHVEEPAFLPDPNDGSLYTLGSKNNEGLTKLPFTIPELVQASPCRSSDGILYMGKKQDIWYVIDLLTGEKQQTLSSAFADSLCPSTSLLYLGRTEYTITMYDTKTRELRWNATYFDYAASLPEDDVDYKMSHFVSNGDGLVVTVDSESGDVLWIQNYASPVVAFYVWQREGLRKVMHINVAVETLRYLTFMSGEVGRITKWKYPFPKETEAKSKLTPTLYVGKYSTSLYASPSMVHEGVAVVPRGSTLPLLEGPQTDGVTIGDKGECVITPSTDVKFDPGLKSKNKLNYLRNYWLLIGHHETPLSASTKMLERFPNNLPKHRENVIPADSEKKSFEEVINLVDQTSENAPTTVSRDVEEKPAHAPARPEAPVDSMLKDMATIILSTFLLIGWVAFIITYPLSMHQQQQLQHQQFQKELEKIQLLQQQQQQLPFHPPGDTAQDGELLDTSGPYSESSGTSSPSTSPRASNHSLCSGSSASKAGSSPSLEQDDGDEETSVVIVGKISFCPKDVLGHGAEGTIVYRGMFDNRDVAVKRILPECFSFADREVQLLRESDEHPNVIRYFCTEKDRQFQYIAIELCAATLQEYVEQKDFAHLGLEPITLLQQTTSGLAHLHSLNIVHRDLKPHNILISMPNAHGKIKAMISDFGLCKKLAVGRHSFSRRSGVPGTEGWIAPEMLSEDCKENPTYTVDIFSAGCVFYYVISEGSHPFGKSLQRQANILLGACSLDCLHPEKHEDVIARELIEKMIAMDPQKRPSAKHVLKHPFFWSLEKQLQFFQDVSDRIEKESLDGPIVKQLERGGRAVVKMDWRENITVPLQTDLRKFRTYKGGSVRDLLRAMRNKKHHYRELPAEVRETLGSLPDDFVCYFTSRFPHLLAHTYRAMELCSHERLFQPYYFHEPPEPQPPVTPDAL
  thio-phosphorylation in an in vitro kinase reaction (ATP-γ-S; western blot with anti-thiophosphate ester antibody): In the reaction containing IRE1-WT, both proteins were thio-phosphorylated

B2: kinase dead (KD) mutant IRE1 (K599A), expressed from plasmid in HEK293T cells (protein)
chain: IFGSTSTVTLPETLLFVSTLDGSLHAVSKRTGSIKWTLKEDPVLQVPTHVEEPAFLPDPNDGSLYTLGSKNNEGLTKLPFTIPELVQASPCRSSDGILYMGKKQDIWYVIDLLTGEKQQTLSSAFADSLCPSTSLLYLGRTEYTITMYDTKTRELRWNATYFDYAASLPEDDVDYKMSHFVSNGDGLVVTVDSESGDVLWIQNYASPVVAFYVWQREGLRKVMHINVAVETLRYLTFMSGEVGRITKWKYPFPKETEAKSKLTPTLYVGKYSTSLYASPSMVHEGVAVVPRGSTLPLLEGPQTDGVTIGDKGECVITPSTDVKFDPGLKSKNKLNYLRNYWLLIGHHETPLSASTKMLERFPNNLPKHRENVIPADSEKKSFEEVINLVDQTSENAPTTVSRDVEEKPAHAPARPEAPVDSMLKDMATIILSTFLLIGWVAFIITYPLSMHQQQQLQHQQFQKELEKIQLLQQQQQQLPFHPPGDTAQDGELLDTSGPYSESSGTSSPSTSPRASNHSLCSGSSASKAGSSPSLEQDDGDEETSVVIVGKISFCPKDVLGHGAEGTIVYRGMFDNRDVAVARILPECFSFADREVQLLRESDEHPNVIRYFCTEKDRQFQYIAIELCAATLQEYVEQKDFAHLGLEPITLLQQTTSGLAHLHSLNIVHRDLKPHNILISMPNAHGKIKAMISDFGLCKKLAVGRHSFSRRSGVPGTEGWIAPEMLSEDCKENPTYTVDIFSAGCVFYYVISEGSHPFGKSLQRQANILLGACSLDCLHPEKHEDVIARELIEKMIAMDPQKRPSAKHVLKHPFFWSLEKQLQFFQDVSDRIEKESLDGPIVKQLERGGRAVVKMDWRENITVPLQTDLRKFRTYKGGSVRDLLRAMRNKKHHYRELPAEVRETLGSLPDDFVCYFTSRFPHLLAHTYRAMELCSHERLFQPYYFHEPPEPQPPVTPDAL
  thio-phosphorylation in an in vitro kinase reaction (ATP-γ-S; western blot with anti-thiophosphate ester antibody): but not in the reaction containing the IRE1-KD mutant

B3: purified, recombinant human IRE1-kinase/RNase domains (amino acids 468-977) (protein)
chain: MHQQQQLQHQQFQKELEKIQLLQQQQQQLPFHPPGDTAQDGELLDTSGPYSESSGTSSPSTSPRASNHSLCSGSSASKAGSSPSLEQDDGDEETSVVIVGKISFCPKDVLGHGAEGTIVYRGMFDNRDVAVKRILPECFSFADREVQLLRESDEHPNVIRYFCTEKDRQFQYIAIELCAATLQEYVEQKDFAHLGLEPITLLQQTTSGLAHLHSLNIVHRDLKPHNILISMPNAHGKIKAMISDFGLCKKLAVGRHSFSRRSGVPGTEGWIAPEMLSEDCKENPTYTVDIFSAGCVFYYVISEGSHPFGKSLQRQANILLGACSLDCLHPEKHEDVIARELIEKMIAMDPQKRPSAKHVLKHPFFWSLEKQLQFFQDVSDRIEKESLDGPIVKQLERGGRAVVKMDWRENITVPLQTDLRKFRTYKGGSVRDLLRAMRNKKHHYRELPAEVRETLGSLPDDFVCYFTSRFPHLLAHTYRAMELCSHERLFQPYYFHEPPEPQPPVTPDAL
  IRE1-induced phosphorylation sites on FMRP (LC-MS/MS): eight IRE1-induced phosphorylation sites on FMRP at serine (S362, S494, S497, S500, S504) and threonine (T502, T592, T594)
  phosphorylation in an in vitro kinase reaction of purified proteins (western blot for ThioP; LC-MS/MS): Both IRE1 and FMRP were phosphorylated in this reaction in an AMG-18-sensitive manner
